The values that follow come from patent US20200199234A1 (published 2020).

Experiment [1] has as its target T1, human HER3 on T-47D cells (human, UniProt P21860 20-1342).
T1 construct: also called ErbB3
The experiment in a line: flow cytometry.

Experiment [2] concerns the target human CD28 expressed on cells (CHO-k1 stably overexpressing human CD28; T cells in functional assays) (human, UniProt P10747 19-220). Put plainly: cell-based or functional assay.
The target of experiment [3] is T2, huCD28-Fc, dimeric human CD28 extracellular domain fused to human IgG1 Fc (knob/hole, PG-LALA), monovalent … (human, UniProt P10747 19-152, biotin on C-terminal avi tag).
T2 construct: also called biotinylated huCD28-Fc antigen; not shown: human IgG1 Fc fragment with hole and PG-LALA mutations; human IgG1 Fc fragment with knob and PG-LALA mutations
The experiment in a line: from SPR KD values.

Experiment [4] addresses T3, Hu N(A2-B2)A-avi-His, chimeric CEACAM1 protein with CEACAM5 domains A2 and B2 (human, biotinylated avi-tag (Example 2.2)).
T3 construct: also called hu N(A2-B2)A-avi-His B; human CEA (A2 domain)
T3 chain: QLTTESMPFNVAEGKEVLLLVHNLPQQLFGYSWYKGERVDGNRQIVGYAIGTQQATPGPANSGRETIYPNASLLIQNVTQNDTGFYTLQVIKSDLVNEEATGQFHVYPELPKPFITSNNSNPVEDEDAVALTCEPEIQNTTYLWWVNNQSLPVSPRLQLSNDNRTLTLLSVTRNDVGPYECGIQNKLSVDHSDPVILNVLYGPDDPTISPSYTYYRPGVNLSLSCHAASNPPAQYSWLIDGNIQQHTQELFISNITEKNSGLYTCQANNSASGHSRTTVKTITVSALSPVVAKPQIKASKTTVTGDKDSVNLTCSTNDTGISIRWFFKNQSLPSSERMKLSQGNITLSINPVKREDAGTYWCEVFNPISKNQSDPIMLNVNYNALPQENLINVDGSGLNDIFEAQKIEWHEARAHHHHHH
The experiment in a line: SPR ProteOn, biotinylated antigen on NLC chip.

Experiment [5] addresses T4, human CEA (CEACAM5) expressed on cells (MKN45; MV3 engineered to express human CEACAM5) (human, UniProt P06731 35-685).
T4 sequence: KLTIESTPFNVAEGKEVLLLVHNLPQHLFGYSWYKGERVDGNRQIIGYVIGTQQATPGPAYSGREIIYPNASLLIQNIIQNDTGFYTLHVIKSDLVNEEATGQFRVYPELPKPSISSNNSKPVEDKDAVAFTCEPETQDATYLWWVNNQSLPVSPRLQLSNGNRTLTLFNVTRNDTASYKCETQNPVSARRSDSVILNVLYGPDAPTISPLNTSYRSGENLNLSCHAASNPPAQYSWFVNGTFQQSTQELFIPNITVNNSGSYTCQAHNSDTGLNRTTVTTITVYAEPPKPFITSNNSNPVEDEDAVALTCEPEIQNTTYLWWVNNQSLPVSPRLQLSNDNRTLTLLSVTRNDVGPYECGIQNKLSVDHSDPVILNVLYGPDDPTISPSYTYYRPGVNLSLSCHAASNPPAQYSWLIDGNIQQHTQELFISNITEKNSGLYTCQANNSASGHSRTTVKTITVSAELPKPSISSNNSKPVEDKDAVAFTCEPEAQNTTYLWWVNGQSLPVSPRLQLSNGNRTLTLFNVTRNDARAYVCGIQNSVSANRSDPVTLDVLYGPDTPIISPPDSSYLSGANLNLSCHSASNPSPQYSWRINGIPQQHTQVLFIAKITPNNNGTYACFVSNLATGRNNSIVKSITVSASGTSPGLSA
Put plainly: flow cytometry on MV3 cells expressing CEA.

B1: Molecule 14B: HER3(lumretuzumab)-CD28 (SA_Variant 15) 1+1 format (bispecific antibody, human IgG1, kappa, L234A L235A)
heavy 1: not shown
light 1: not shown
heavy 2: DIVMTQSPDSLAVSLGERATINCKSSQSVLNSGNQKNYLTWYQQKPGQPPKLLIYWASTRESGVPDRFSGSGSGTDFTLTISSLQAEDVAVYYCQSDYSYPYTFGQGTKLEIKSSASTKGPSVFPLAPSSKSTSGGTAALGCLVKDYFPEPVTVSWNSGALTSGVHTFPAVLQSSGLYSLSSVVTVPSSSLGTQTYICNVNHKPSNTKVDKKVEPKSCDKTHTCPPCPAPEAAGGPSVFLFPPKPKDTLMISRTPEVTCVVVDVSHEDPEVKFNWYVDGVEVHNAKTKPREEQYNSTYRVVSVLTVLHQDWLNGKEYKCKVSNKALGAPIEKTISKAKGQPREPQVCTLPPSRDELTKNQVSLSCAVKGFYPSDIAVEWESNGQPENNYKTTPPVLDSDGSFFLVSKLTVDKSRWQQGNVFSCSVMHEALHNHYTQKSLSLSP
light 2: QVQLVQSGAEVKKPGASVKVSCKASGYTFRSSYISWVRQAPGQGLEWMGWIYAGTGSPSYNQKLQGRVTMTTDTSTSTAYMELRSLRSDDTAVYYCARHRDYYSNSLTYWGQGTLVTVSSASVAAPSVFIFPPSDEQLKSGTASVVCLLNNFYPREAKVQWKVDNALQSGNSQESVTEQDSKDSTYSLSSTLTLSKADYEKHKVYACEVTHQGLSSPVTKSFNRGEC
notes: also called P1AF0151; HER3-CD28
Consider B1, for which, in experiment [1], the binding result is on record as “binds”.

B2: FAP (4B9) - CD28 (CD28(SA)_Variant 8) 1+1 (bispecific antibody, human IgG1, kappa, L234A L235A)
heavy 1: EIVLTQSPGTLSLSPGERATLSCRASQSVTSSYLAWYQQKPGQAPRLLINVGSRRATGIPDRFSGSGSGTDFTLTISRLEPEDFAVYYCQQGIMLPPTFGQGTKVEIKSSASTKGPSVFPLAPSSKSTSGGTAALGCLVKDYFPEPVTVSWNSGALTSGVHTFPAVLQSSGLYSLSSVVTVPSSSLGTQTYICNVNHKPSNTKVDKKVEPKSCDKTHTCPPCPAPEAAGGPSVFLFPPKPKDTLMISRTPEVTCVVVDVSHEDPEVKFNWYVDGVEVHNAKTKPREEQYNSTYRVVSVLTVLHQDWLNGKEYKCKVSNKALGAPIEKTISKAKGQPREPQVCTLPPSRDELTKNQVSLSCAVKGFYPSDIAVEWESNGQPENNYKTTPPVLDSDGSFFLVSKLTVDKSRWQQGNVFSCSVMHEALHNHYTQKSLSLSP
light 1: EVQLLESGGGLVQPGGSLRLSCAASGFTFSSYAMSWVRQAPGKGLEWVSAIIGSGASTYYADSVKGRFTISRDNSKNTLYLQMNSLRAEDTAVYYCAKGWFGGFNYWGQGTLVTVSSASVAAPSVFIFPPSDEQLKSGTASVVCLLNNFYPREAKVQWKVDNALQSGNSQESVTEQDSKDSTYSLSSTLTLSKADYEKHKVYACEVTHQGLSSPVTKSFNRGEC
heavy 2: not shown
light 2: not shown
notes: also called P1AE3131
With B2, in experiment [2], the “EC50 killing (nM), TCB-mediated killing of MV3 target cells” value came out at 2.33 nM. For the same molecule, the “fold reduction of affinity compared to the parental CD28 clone” value in experiment [3] is around 20 fold.

B3: Molecule M: CEA-CD28(SA) 1+1 format (bispecific antibody, human IgG1, kappa, L234A L235A)
light 1: not shown
heavy 1: not shown
heavy 2: QAVLTQPASLSASPGASASLTCTLRRGINVGAYSIYWYQQKPGSPPQYLLRYKSDSDKQQGSGVSSRFSASKDASANAGILLISGLQSEDEADYYCMIWHSGASAVFGGGTKLTVLSSASTKGPSVFPLAPSSKSTSGGTAALGCLVKDYFPEPVTVSWNSGALTSGVHTFPAVLQSSGLYSLSSVVTVPSSSLGTQTYICNVNHKPSNTKVDKKVEPKSCDKTHTCPPCPAPEAAGGPSVFLFPPKPKDTLMISRTPEVTCVVVDVSHEDPEVKFNWYVDGVEVHNAKTKPREEQYNSTYRVVSVLTVLHQDWLNGKEYKCKVSNKALGAPIEKTISKAKGQPREPQVCTLPPSRDELTKNQVSLSCAVKGFYPSDIAVEWESNGQPENNYKTTPPVLDSDGSFFLVSKLTVDKSRWQQGNVFSCSVMHEALHNHYTQKSLSLSP
light 2: EVQLVESGGGLVQPGRSLRLSCAASGFTVSSYWMHWVRQAPGKGLEWVGFIRNKANGGTTEYAASVKGRFTISRDDSKNTLYLQMNSLRAEDTAVYYCARDRGLRFYFDYWGQGTTVTVSSASVAAPSVFIFPPSDEQLKSGTASVVCLLNNFYPREAKVQWKVDNALQSGNSQESVTEQDSKDSTYSLSSTLTLSKADYEKHKVYACEVTHQGLSSPVTKSFNRGEC
notes: anti-CEA arm is Medi-565; also called P1AE3127
Regarding B3, in experiment [4], binding was put at a Kd of 0.29 nM.

B4: Molecule 11R: CEA (P002.139)-CD28 (SA_Variant 15) 1+1 format (bispecific antibody)
heavy 1: EIVLTQSPATLSLSPGERATLSCHASSSVTYIHWYQQKPGQAPRSWIYATSNLASGIPARFSGSGSGTDFTLTISSLEPEDFAVYYCQHWSSKPPTFGQGTKLEIKSSASTKGPSVFPLAPSSKSTSGGTAALGCLVKDYFPEPVTVSWNSGALTSGVHTFPAVLQSSGLYSLSSVVTVPSSSLGTQTYICNVNHKPSNTKVDKKVEPKSCDKTHTCPPCPAPEAAGGPSVFLFPPKPKDTLMISRTPEVTCVVVDVSHEDPEVKFNWYVDGVEVHNAKTKPREEQYNSTYRVVSVLTVLHQDWLNGKEYKCKVSNKALGAPIEKTISKAKGQPREPQVCTLPPSRDELTKNQVSLSCAVKGFYPSDIAVEWESNGQPENNYKTTPPVLDSDGSFFLVSKLTVDKSRWQQGNVFSCSVMHEALHNHYTQKSLSLSP
light 1: EVQLLESGGGLVQPGGSLRLSCAASGFYFTDYAMNWVRQAPGKGLEWLGVISNKANAYTTEYSASVKGRFTISRDKSKNTLYLQMNSLRAEDTATYYCTRDRGLRFYFDYWGQGTTVTVSSASVAAPSVFIFPPSDEQLKSGTASVVCLLNNFYPREAKVQWKVDNALQSGNSQESVTEQDSKDSTYSLSSTLTLSKADYEKHKVYACEVTHQGLSSPVTKSFNRGEC
heavy 2: not shown
light 2: not shown
notes: also called P1AE8371
With B4, the response in experiment [5] was half-maximal at 4.1 nM (EC50).
